Laboratory results taken from patent US20240342207, “MODIFIED NUCLEIC ACID COMPOSITIONS AND ASSOCIATED METHODS FOR TREATMENT OF PHENYLKETONURIA” (BOARD OF REGENTS, THE UNIVERSITY OF TEXAS SYSTEM, published 2024).
Residue numbers refer to the chain shown, from its start.

Key:
Conditions in all cases: tags: His-tag, E. coli; stem-loop
PAH A300S = biological target: T1, PAH A300S (Homo sapiens, UniProt P00439 P00439:1-452, A300S); assay: EMSA; one of 13 of 17 binding mutants; affinity not decreased
T1 sequence: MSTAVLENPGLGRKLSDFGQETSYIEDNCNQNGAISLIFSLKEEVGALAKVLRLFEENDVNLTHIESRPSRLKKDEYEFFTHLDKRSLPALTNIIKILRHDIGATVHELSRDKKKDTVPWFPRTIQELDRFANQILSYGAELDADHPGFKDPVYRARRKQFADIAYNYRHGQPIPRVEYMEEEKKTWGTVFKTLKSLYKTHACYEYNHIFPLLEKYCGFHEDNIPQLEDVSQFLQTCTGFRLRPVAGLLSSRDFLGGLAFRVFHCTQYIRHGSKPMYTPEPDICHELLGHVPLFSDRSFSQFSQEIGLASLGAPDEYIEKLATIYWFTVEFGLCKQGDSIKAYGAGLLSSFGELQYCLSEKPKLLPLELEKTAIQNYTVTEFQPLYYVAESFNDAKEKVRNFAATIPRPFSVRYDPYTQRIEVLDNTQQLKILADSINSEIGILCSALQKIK

PAH I283N = biological target: T2, PAH I283N (Homo sapiens, UniProt P00439 P00439:1-452, I283N); assay: as above
T2 sequence: T1 sequence with I283N, S300A

PAH Y414C = biological target: T3, PAH Y414C (Homo sapiens, UniProt P00439 P00439:1-452, Y414C); assay: EMSA; one of 13 of 17 binding mutants (identity from p198 list)
T3 sequence: T1 sequence with S300A, Y414C
Excerpt: (§1) It was reasoned that supplementing lncRNAs might improve the catalytic activities of the PAH mutants, leading to reduced serum Phe concentrations and improved symptoms in patients with PKU. Scramble (Scr) and HULC mimics representing wild-type HULC nt. 181-201 and HULC A191G mutated sequences were designed for the following studies. 17 PAH mutants that were identified from patients with PKU and are known to affect the enzymatic activity of PAH (21, 22) were selected, and bacterially-expressed wild-type and mutant PAH (FIG. 10 and see FIG. S13A in Li et al. 2021) were collected. […] The denatured wild-type PAH proteins were included as a negative control.
(§2) RNA Electrophoretic Mobility Shift Assay (EMSA). The gel mobility shift assay was performed as previously described (42). Briefly, 500 ng recombinant His-tagged wild-type PAH or mutants were incubated with 0.035 μmol labeled probe in a RNA-protein binding buffer [(50 mM Tris-HCl 7.9, 10% glycerol, 100 mM KCl, 5 mM MgCl₂, 10 mM (3-ME, 0.1% NP40] for 30 min at 30° C. For cold RNA competition, 0.035 μmol radiolabeled RNA probes were first mixed with 7 μmol cold RNA competitors and then subjected to the gel shift assay.

PAH Y417H = biological target: T4, PAH Y417H (Homo sapiens, UniProt P00439 P00439:1-452, Y417H); assay: as above
T4 sequence: T1 sequence with S300A, Y417H
Excerpt: as §1, §2

Measured: binding result

B1: HULC 181-201 mimic (ssRNA)
RNA: CAAAAUGCAUAUGUAUCUUUG
binds: PAH A300S | PAH I283N | PAH Y414C | PAH Y417H
